These results are taken from the supplement of paper PMC5998384.

Series [1] concerns HeLa Kyoto. As to the kind of experiment: solubility in G1/S (NP-40 vs SDS abundance) (log2 ratio); higher = more soluble. The following applies: cell cycle stage: G1/S.
Series [2] relates to HeLa Kyoto. As to the kind of experiment: solubility change mitosis vs G1/S (difference of NP-40 vs SDS log2 ratios) (log2 ratio difference); higher = more soluble in mitosis.
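Throughout, for solubility change mitosis vs G1/S (difference of NP-40 vs SDS log2 ratios): synchronized HeLa Kyoto cells (double thymidine block for G1/S, nocodazole release for mitosis), protein amounts in NP-40 versus SDS lysates quantified by mass spectrometry, three biological replicates.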
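Throughout, for solubility in G1/S (NP-40 vs SDS abundance): HeLa Kyoto cells arrested at G1/S by double thymidine block, proteins quantified by TMT10plex mass spectrometry in mild NP-40 versus SDS extracts, three biological replicates.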

Chain of TFAP2A (chain, as listed by the source): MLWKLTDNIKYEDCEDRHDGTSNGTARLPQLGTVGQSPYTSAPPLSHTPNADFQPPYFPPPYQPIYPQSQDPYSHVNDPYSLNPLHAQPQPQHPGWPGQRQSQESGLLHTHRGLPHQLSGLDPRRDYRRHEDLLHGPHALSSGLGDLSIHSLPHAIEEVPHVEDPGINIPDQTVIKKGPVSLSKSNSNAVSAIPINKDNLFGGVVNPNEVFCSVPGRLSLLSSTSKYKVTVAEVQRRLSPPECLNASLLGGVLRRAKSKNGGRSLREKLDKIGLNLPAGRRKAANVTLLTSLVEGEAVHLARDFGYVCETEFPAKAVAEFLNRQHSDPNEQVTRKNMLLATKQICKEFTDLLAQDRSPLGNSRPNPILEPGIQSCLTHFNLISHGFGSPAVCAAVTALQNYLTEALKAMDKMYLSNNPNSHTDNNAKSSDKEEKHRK
Chain of UBE2D1 (chain, as listed by the source): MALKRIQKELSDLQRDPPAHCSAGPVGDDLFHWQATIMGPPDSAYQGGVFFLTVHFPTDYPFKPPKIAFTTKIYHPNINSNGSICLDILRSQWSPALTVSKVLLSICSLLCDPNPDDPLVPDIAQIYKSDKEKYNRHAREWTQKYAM

Regarding “MWSLTASEGESTTAHFFLGAGDEGLGTRGIGMRPEESDSELLEDEEDEVPPEPQIIVGICAMTKKSKSKPMTQILERLCRFDYLTVVILGEDVILNEPVENWPSCHCLISFHSKGFPLDKAVAYSKLRNPFLINDLAMQYYIQDRREVYRILQEEGIDLPRYAVLNRDPARPEECNLIEGEDQVEVNGAVFPKPFVEKPVSAEDHNVYIYYPSSAGGGSQRLFRKIGSRSSVYSPESSVRKTGSYIYEEFMPTDGTDVKVYTVGPDYAHAEARKSPALDGKVERDSEGKEIRYPVMLTAMEKLVARKVCVAFKQTVCGFDLLRANGHSFVCDVNGFSFVKNSMKYYDDCAKILGNTIMRELAPQFQIPWSIPTEAEDIPIVPTTSGTMMELRCVIAIIRHGDRTPKQKMKMEVKHPRFFALFEKHGGYKTGKLKLKRPEQLQEVLDITRLLLAELEKEPGGEIEEKTGKLEQLKSVLEMYGHFSGINRKVQLTYYPHGVKASNEGQDPQRETLAPSLLLVLKWGGELTPAGRVQAEELGRAFRCMYPGGQGDYAGFPGCGLLRLHSTFRHDLKIYASDEGRVQMTAAAFAKGLLALEGELTPILVQMVKSANMNGLLDSDGDSLSSCQHRVKARLHHILQQDAPFGPEDYDQLAPTRSTSLLNSMTIIQNPVKVCDQVFALIENLTHQIRERMQDPRSVDLQLYHSETLELMLQRWSKLERDFRQKSGRYDISKIPDIYDCVKYDVQHNGSLGLQGTAELLRLSKALADVVIPQEYGISREEKLEIAVGFCLPLLRKILLDLQRTHEDESVNKLHPLCYLRYSRGVLSPGRHVRTRLYFTSESHVHSLLSVFRYGGLLDETQDAQWQRALDYLSAISELNYMTQIVIMLYEDNTQDPLSEERFHVELHFSPGVKGVEEEGSAPAGCGFRPASSENEEMKTNQGSMENLCPGKASDEPDRALQTSPQPPEGPGLPRRSPLIRNRKAGSMEVLSETSSSRPGGYRLFSSSRPPTEMKQSGLGSQCTGLFSTTVLGGSSSAPNLQDYARSHGKKLPPASLKHRDELLFVPAVKRFSVSFAKHPTNGFEGCSMVPTIYPLETLHNALSLRQVSEFLSRVCQRHTDAQAQASAALFDSMHSSQASDNPFSPPRTLHSPPLQLQQRSEKPPWYSSGPSSTVSSAGPSSPTTVDGNSQFGFSDQPSLNSHVAEEHQGLGLLQETPGSGAQELSIEGEQELFEPNQSPQVPPMETSQPYEEVSQPCQEVPDISQPCQDISEALSQPCQKVPDISQQCQENHDNGNHTCQEVPHISQPCQKSSQLCQKVSEEVCQLCLENSEEVSQPCQGVSVEVGKLVHKFHVGVGSLVQETLVEVGSPAEEIPEEVIQPYQEFSVEVGRLAQETSAINLLSQGIPEIDKPSQEFPEEIDLQAQEVPEEIN [PPIP5K1]”, the “solubility in G1/S (log2)” value in the series with HeLa Kyoto [1] was -0.000791. In the series on HeLa Kyoto [2], the “solubility change mitosis (log2)” value was -0.212.
For “MWVNPEEVLLANALWITERANPYFILQRRKGHAGDGGGGGGLAGLLVGTLDVVLDSSARVAPYRILYQTPDSLVYWTIACGGSRKEITEHWEWLEQNLLQTLSIFENENDITTFVRGKIQGIIAEYNKINDVKEDDDTEKFKEAIVKFHRLFGMPEEEKLVNYYSCSYWKGKVPRQGWMYLSINHLCFYSFLMGREAKLVIRWVDITQLEKNATLLLPDVIKVSTRSSEHFFSVFLNINETFKLMEQLANIAMRQLLDNEGFEQDRSLPKLKRKSPKKVSALKRDLDARAKSERYRALFRLPKDEKLDGHTDCTLWTPFNKMHILGQMFVSTNYICFTSKEENLCSLIIPLREVTIVEKADSSSVLPSPLSISTRNRMTFLFANLKDRDFLVQRISDFLQQTTSKIYSDKEFAGSYNSSDDEVYSRPSSLVSSSPQRSTSSDADGERQFNLNGNSVPTATQTLMTMYRRRSPEEFNPKLAKEFLKEQAWKIHFAEYGQGICMYRTEKTRELVLKGIPESMRGELWLLLSGAINEKATHPGYYEDLVEKSMGKYNLATEEIERDLHRSLPEHPAFQNEMGIAALRRVLTAYAFRNPNIGYCQAMNIVTSVLLLYAKEEEAFWLLVALCERMLPDYYNTRVVGALVDQGVFEELARDYVPQLYDCMQDLGVISTISLSWFLTLFLSVMPFESAVVVVDCFFYEGIKVIFQLALAVLDANVDKLLNCKDDGEAMTVLGRYLDSVTNKDSTLPPIPHLHSLLSDDVEPYPEVDIFRLIRTSYEKFGTIRADLIEQMRFKQRLKVIQTLEDTTKRNVVRTIVTETSFTIDELEELYALFKAEHLTSCYWGGSSNALDRHDPSLPYLEQYRIDFEQFKGMFALLFPWACGTHSDVLASRLFQLLDENGDSLINFREFVSGLSAACHGDLTEKLKLLYKMHVLPEPSSDQDEPDSAFEATQYFFEDITPECTHVVGLDSRSKQGADDGFVTVSLKPDKGKRANSQENRNYLRLWTPENKSKSKNAKDLPKLNQGQFIELCKTMYNMFSEDPNEQELYHATAAVTSLLLEIGEVGKLFVAQPAKEGGSGGSGPSCHQGIPGVLFPKKGPGQPYVVESVEPLPASLAPDSEEHSLGGQMEDIKLEDSSPRDNGACSSMLISDDDTKDDSSMSSYSVLSAGSHEEDKLHCEDIGEDTVLVRSGQGTAALPRSTSLDRDWAITFEQFLASLLTEPALVKYFDKPVCMMARITSAKNIRMMGKPLTSASDYEISAMSG [TBC1D9]”, the “solubility in G1/S (log2)” value in the series with HeLa Kyoto [1] is -0.4. In addition, the “solubility change mitosis (log2)” value in the series on HeLa Kyoto [2] worked out at 0.38.
In the case of MYLK, in the series with HeLa Kyoto [1], the “solubility in G1/S (log2)” value was -0.635. Also, in the series on HeLa Kyoto [2], the “solubility change mitosis (log2)” value was determined as 0.101.
In the same order, the values of “MYRLMSAVTARAAAPGGLASSCGRRGVHQRAGLPPLGHGWVGGLGLGLGLALGVKLAGGLRGAAPAQSPAAPDPEASPLAEPPQEQSLAPWSPQTPAPPCSRCFARAIESSRDLLHRIKDEVGAPGIVVGVSVDGKEVWSEGLGYADVENRVPCKPETVMRIASISKSLTMVALAKLWEAGKLDLDIPVQHYVPEFPEKEYEGEKVSVTTRLLISHLSGIRHYEKDIKKVKEEKAYKALKMMKENVAFEQEKEGKSNEKNDFTKFKTEQENEAKCRNSKPGKKKNDFEQGELYLREKFENSIESLRLFKNDPLFFKPGSQFLYSTFGYTLLAAIVERASGCKYLDYMQKIFHDLDMLTTVQEENEPVIYNRARFYVYNKKKRLVNTPYVDNSYKWAGGGFLSTVGDLLKFGNAMLYGYQVGLFKNSNENLLPGYLKPETMVMMWTPVPNTEMSWDKEGKYAMAWGVVERKQTYGSCRKQRHYASHTGGAVGASSVLLVLPEELDTETINNKVPPRGIIVSIICNMQSVGLNSTALKIALEFDKDRSD [LACTB]” are -2.26 and 0.376.
On to “MYRSGERLLGSHALPAEQRDFLPLETTNNNNNHHQPGAWARRAGSSASSPPSASSSPHPSAAVPAADPADSASGSSNKRKRDNKASGGRAAGGGRADGGGVVYSGTPWKRRNYNQGVVGLHEEISDFYEYMSPRPEEEKMRMEVVNRIESVIKELWPSADVQIFGSFKTGLYLPTSDIDLVVFGKWENLPLWTLEEALRKHKVADEDSVKVLDKATVPIIKLTDSFTEVKVDISFNVQNGVRAADLIKDFTKKYPVLPYLVLVLKQFLLQRDLNEVFTGGIGSYSLFLMAVSFLQLHPREDACIPNTNYGVLLIEFFELYGRHFNYLKTGIRIKDGGSYVAKDEVQKNMLDGYRPSMLYIEDPLQPGNDVGRSSYGAMQVKQAFDYAYVVLSHAVSPIAKYYPNNETESILGRIIRVTDEVATYRDWISKQWGLKNRPEPSCNGPVSSSSATQSSSSDVDSDATPCKTPKQLLCRPSTGNRVGSQDVSLESSQAVGKMQSTQTTNTSNSTNKSQHGSARLFRSSSKGFQGTTQTSHGSLMTNKQHQGKSNNQYYHGKKRKHKRDAPLSDLCR [PAPD5]”, for which the “solubility in G1/S (log2)” value in the series on HeLa Kyoto [1] is -0.654. In the series with HeLa Kyoto [2], the “solubility change mitosis (log2)” value amounted to 0.189.
As for PEAK1, the “solubility in G1/S (log2)” value in the series with HeLa Kyoto [1] is -0.569. Besides, in the series on HeLa Kyoto [2], the “solubility change mitosis (log2)” value came out at 0.302.
Take PHRF1: the “solubility in G1/S (log2)” value in the series with HeLa Kyoto [1] was -0.629. Further, in the series on HeLa Kyoto [2], the “solubility change mitosis (log2)” value is 0.566.
Consider PPP3R1, for which the “solubility in G1/S (log2)” value in the series with HeLa Kyoto [1] came out at 0.385. Further, the “solubility change mitosis (log2)” value in the series with HeLa Kyoto [2] is -0.104.
In the same order, the values of PTPN6 are 0.166 and 0.0101.
In the same order, the values of RLF are -0.887 and 0.617.
As to SYNM, the “solubility in G1/S (log2)” value in the series with HeLa Kyoto [1] is -0.94. The “solubility change mitosis (log2)” value in the series with HeLa Kyoto [2] is 0.752.
With TET2, the “solubility in G1/S (log2)” value in the series on HeLa Kyoto [1] stood at 0.155. Moreover, the “solubility change mitosis (log2)” value in the series on HeLa Kyoto [2] is -0.257.
In the same order, the values of TFAP2A are 0.185 and 0.505.
UBE2D1: the “solubility in G1/S (log2)” value in the series with HeLa Kyoto [1] worked out at 0.473. The “solubility change mitosis (log2)” value with HeLa Kyoto [2] was -0.0476.
With VPS13B, the “solubility in G1/S (log2)” value with HeLa Kyoto [1] is -0.247. In the series with HeLa Kyoto [2], the “solubility change mitosis (log2)” value was -0.0582.
